In data set [1] the test system is MS2 coat protein. The data set is described as follows: apparent KD of MS2 coat protein, switch OFF state (with FMN for OFF switches, without FMN for ON switches); designed switch direction (-1 OFF switch, 1 ON switch): -1; higher = weaker reporter binding. As to conditions: FMN input: 0 or 200 uM; Eterna round: R93 (includes R88 designs). In a few lines:
(§1)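 For every design, apparent KD is the median of normalised binding-curve fits from its clusters. The RNA switches were transcribed on-chip from Illumina sequencing clusters and titrated with SNAP-549-labelled MS2 coat protein (twofold steps, 0.7 or 1.5 nM to 3 µM; 0.8–1.5 h to 10–20 min per step). Titrations used 100 mM Tris-HCl pH 7.5, 80 mM KCl, 4 mM MgCl2, without or with constant ligand.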

In data set [2] the test system is MS2 coat protein. The data set is described as follows: apparent KD of MS2 coat protein, switch ON state; designed switch direction (-1 OFF switch, 1 ON switch): -1; higher = weaker reporter binding. As to conditions: FMN input: 0 or 200 uM; Eterna round: R93 (includes R88 designs). In a few lines:
as §1

Consider “AACAUGUCAGGAUAUUAAAGAAAAGAAAAGAAAGAAAAGAAUAAGAAGGGACAUGAGGAUCACCCAUGUAAGAA [EteRNA is fun!]”, for which the “apparent KD of MS2 coat protein” value turned out to be 37 nM with MS2 coat protein [1] and 72.1 nM in the data set with MS2 coat protein [2].

For the sequence “AACGUACAUGAGGAUCACCCAUGUUAGGAUAUAUAUACAGGAAAACAUUCUAAUGUAAAUAGAAGGAACGAAAA [Bilbo Confounded 21 - Jieux - Exclusion 1]”, the “apparent KD of MS2 coat protein” value with MS2 coat protein [1] was 10.8 nM; with MS2 coat protein [2], 17.1 nM.

Consider “AACUAGUCAGGAUAUACGAACAUGUCAAAAAACAUAAAGGGACAUGAGGAUCACCCAUGUAGAAGGGACUAGCA [74%, Web mod - With 4 less G's]”, for which the “apparent KD of MS2 coat protein” value is 262 nM in the data set on MS2 coat protein [1] and 161 nM in the data set on MS2 coat protein [2].

As for “AACUAGUCAGGAUAUGCGAACAGAUAAUAAGCUACACAAAAGCAGAAGGGACAUGAGGAUCACCCAUGUAAAUA [JR_Exc004_Sub502]”, the “apparent KD of MS2 coat protein” value with MS2 coat protein [1] was 33 nM; in the data set with MS2 coat protein [2], 39.3 nM.

Regarding “AACUGACAUGAGGAUCACCCAUGUCAGGAUAUGACUUCGAAAAAAAAAAAAAACGAUGUCAGAAGGGACAUGGA [Design 66: Sub-opt N]”, the “apparent KD of MS2 coat protein” value in the data set with MS2 coat protein [1] worked out at 27.2 nM; with MS2 coat protein [2], 17.5 nM.

Turning to “AACUGACAUGAGGAUCACCCAUGUCAGGAUAUGAUUUGACGAAAAAAAAAAAGUCAUAUCAGAAGGGACAUGGG [Design 82: Sub-opt V]”, the “apparent KD of MS2 coat protein” value in the data set on MS2 coat protein [1] is 17.6 nM; with MS2 coat protein [2], 19 nM.

For “AAGAAACAUGAGGAUCACCCAUGUAAGGAUAUCUAAAAGAAAAGAAAAGAAAGAAGAAAGAGAAGGUACAAAGG [Nebhetepre Mentuhotep II]”, the “apparent KD of MS2 coat protein” value worked out at 81.3 nM with MS2 coat protein [1] and 87.3 nM in the data set with MS2 coat protein [2].

As to “AAGAAACAUGAGGAUCACCCAUGUGAGGAUAUAGAAAAGAAAAGAAAAGAAAGAAGAACUAGAAGGCACAAAGG [Neferkare (IV) Khendu]”, the “apparent KD of MS2 coat protein” value was 28.8 nM with MS2 coat protein [1] and 31.1 nM in the data set on MS2 coat protein [2].

Regarding “AAGAACGCAGGAUAUACAAAAUAAAAGAAAAGAAAGAAAGAACAUGAGGAUCACCCAUGUAGAAGGGCGAAGAA [Sewadjkare]”, the “apparent KD of MS2 coat protein” value in the data set on MS2 coat protein [1] worked out at 49.5 nM; in the data set on MS2 coat protein [2], 52.2 nM.

On to “AAGAACGCAGGAUAUAUUAAGGGACAAAGAAGGAAGAAUAAACAUGAGGAUCACCCAUGUAGAAGGGCGAAGAA [JR_Exclusion2_Sub4]”, for which the “apparent KD of MS2 coat protein” value in the data set with MS2 coat protein [1] is 43.5 nM; in the data set on MS2 coat protein [2], 49.4 nM.

Consider “AAGAACGGAGGAUAUACAAAAUAAAAGAAAAGAAAGAAAGAACAUGAGGAUCACCCAUGUAGAAGGCUGAAGAA [Merneferre Ay I]”, for which the entries for the “apparent KD of MS2 coat protein” value in the data set on MS2 coat protein [1] and with MS2 coat protein [2] were 35.2 nM and 35.7 nM, respectively.

Turning to “AAGAACGUAGGAUAUACAUGAGGAUCACCCAUGUAAAAGAAAGAAAGGGAAAAGAAAAGUAGAAGGACGAAGAA [Hedjkheperre-setepenre Shoshenq I]”, the “apparent KD of MS2 coat protein” value with MS2 coat protein [1] worked out at 77.9 nM; with MS2 coat protein [2], 29.7 nM.

As to “AAGAACGUAGGAUAUACAUGAGGAUCACCCAUGUAAAAGAAAGAAGGGAAAGAGAAAAGUAGAAGGACGAAGAA [Wahkare Bakenrenef]”, the “apparent KD of MS2 coat protein” value was determined as 34.4 nM in the data set with MS2 coat protein [1] and 21.6 nM with MS2 coat protein [2].

As for “AAGAACUCAGGAUAUACAUGAGGAUCACCCAUGUAAAAGAAAGAAAGGGAAAAGAAAAGUAGAAGGGAGAAGAA [Hedjkheperre-setpenre Nesbanebdjed]”, the “apparent KD of MS2 coat protein” value in the data set with MS2 coat protein [1] came out at 34.3 nM; in the data set with MS2 coat protein [2], 28.7 nM.

On to “AAGAACUGAGGAUAUACAAAAUAAAAGAAAAGAAAGAAAGAACAUGAGGAUCACCCAUGUAGAAGGCAGAAGAA [Sekhemre Khutawy Sobekhotep I]”, for which the “apparent KD of MS2 coat protein” value in the data set on MS2 coat protein [1] stood at 19.7 nM; in the data set with MS2 coat protein [2] it was 27.6 nM.

As for “AAGAACUGAGGAUAUACUUUGGGAAAAGAAAAGAUGAUGUUACAUGAGGAUCACCCAUGUAGAAGGCAGAAGAA [Mat - Exclusion 2 - Mod - D153]”, the “apparent KD of MS2 coat protein” value is 37 nM with MS2 coat protein [1] and 27 nM with MS2 coat protein [2].

With “AAGAAGCAAGGAUAUACAUGAGGAUCACCCAUGUAAAAGAAAGAGGGAAAAGAGAAAAGUAGAAGGUGCAAGAA [Ptolemy VI Philometor]”, the “apparent KD of MS2 coat protein” value with MS2 coat protein [1] was determined as 54.4 nM; with MS2 coat protein [2] it was 22.6 nM.

For the sequence “AAGAAGCGAGGAUAUACAUGAGGAUCACCCAUGUAAAAGAAAGAGGGAAAAGAGAAAAGUAGAAGGCGCAAGAA [Philip III Arrhidaeus]”, the “apparent KD of MS2 coat protein” value came to 123 nM with MS2 coat protein [1] and 84.2 nM in the data set with MS2 coat protein [2].

Take “AAGAAGGCAGGAUAUACAAAAUAAAAGAAAAGAAAGAAAGAACAUGAGGAUCACCCAUGUAGAAGGGCUAAGAA [Merhotepre Ini]”: the “apparent KD of MS2 coat protein” value is 39.3 nM in the data set with MS2 coat protein [1] and 50.9 nM in the data set with MS2 coat protein [2].

For the sequence “AAGAAGGUAGGAUAUACAUGAGGAUCACCCAUGUAAAAGAAAGAGGGAAAAGAGAAAAGUAGAAGGACCAAGAA [Ankhmakis]”, the “apparent KD of MS2 coat protein” value in the data set with MS2 coat protein [1] was 50.1 nM; with MS2 coat protein [2], 34.3 nM.

For “AAGAAGUCAGGAUAUACAUGAAAGAAAGAAAAGAAAAGAAAACAUGAGGAUCACCCAUGUAGAAGGGACAAGAA [EteRNA is fun!]”, the “apparent KD of MS2 coat protein” value was found to be 50.5 nM with MS2 coat protein [1] and 54.5 nM in the data set with MS2 coat protein [2].

Turning to “AAGAAGUGAGGAUAUACAUGAGGAUCACCCAUGUAAAAGAAAGAGGGAAAAGAGAAAAGUAGAAGGCACAAGAA [Weserkare-meryamun Ptolemy II Philadelphos]”, the “apparent KD of MS2 coat protein” value worked out at 33.7 nM in the data set on MS2 coat protein [1] and 35.6 nM in the data set with MS2 coat protein [2].

Turning to “AAGAAGUGAGGAUAUCGAAGACAGACGAAAAGUCUGUCAAACGAGAAGGCACAUGAGGAUCACCCAUGUGGAAA [What have we learned so far? 64% 4]”, the “apparent KD of MS2 coat protein” value in the data set with MS2 coat protein [1] came to 34.6 nM; with MS2 coat protein [2], 30.5 nM.

As to “AAGAAGUGAGGAUAUGUCUGUGCGAAAAAAAAAAAGUGCAGACAGAAGGCACAUGAGGAUCACCCAUGUGGGAA [Florian 65% 6]”, the “apparent KD of MS2 coat protein” value in the data set with MS2 coat protein [1] stood at 87.2 nM; in the data set with MS2 coat protein [2] it was 76.6 nM.

As to “AAGAUCAGAGGAUAUACAUAAGGUGAUGGAGACAUCGCCAAACAUGAGGAUCACCCAUGUAGAAGGCUGAUCAA [Mat - Exclusion 2 - JL mod - D62]”, the “apparent KD of MS2 coat protein” value in the data set on MS2 coat protein [1] is 49.7 nM; in the data set on MS2 coat protein [2], 36.8 nM.

“AAGCUGGUAGGAUAUACUAGGGCAACUAAUGCACCGAUAGGACAUGAGGAUCACCCAUGUAGAAGGGCCAGAAA [JR_Exc002_Sub404]”: the results for the “apparent KD of MS2 coat protein” value with MS2 coat protein [1] and in the data set with MS2 coat protein [2] were 137 nM and 65.5 nM, respectively.

On to “AAGGAUCGAGGAUAUACAUAGAUACAGAUACAUGUAGAACUACAUGAGGAUCACCCAUGUAGAAGGCGAUCAUA [AJ 30]”, for which the “apparent KD of MS2 coat protein” value with MS2 coat protein [1] turned out to be 56.3 nM; in the data set on MS2 coat protein [2], 23.9 nM.

Consider “AAGGGACAUGAGGAUCACCCAUGUCAGGAUAUGCAAACAACAAACAACAAACAACAAAGCAGAAGGGACAAAAA [63%, Olong, 5]”, for which the “apparent KD of MS2 coat protein” value turned out to be 24.1 nM with MS2 coat protein [1] and 29.1 nM in the data set with MS2 coat protein [2].

Regarding “AAGGUACGAGGAUAUACAUAGAUACAGACACAUGUACAUGUACAUGAGGAUCACCCAUGUAGAAGGCGUAUAUA [AJ 19]”, the “apparent KD of MS2 coat protein” value in the data set with MS2 coat protein [1] was determined as 69.7 nM; with MS2 coat protein [2], 86.1 nM.

In the case of “AAUAAGUGAGGAUAUACUAAAGAAAUGAAAAGGGAUAAAGAACAUGAGGAUCACCCAUGUAGAAGGCACAAUAA ['Aper-'Anat]”, the “apparent KD of MS2 coat protein” value in the data set with MS2 coat protein [1] was found to be 37.2 nM; in the data set with MS2 coat protein [2], 31.9 nM.

As to “AAUAAGUGAGGAUAUCGAAGACUGUCGAAAAGACAGUCGAACGAGAAGGCACAUGAGGAUCACCCAUGUGAGGG [Mat - Exaclusion 4 - Eli mod - D69]”, the “apparent KD of MS2 coat protein” value is 107 nM in the data set on MS2 coat protein [1] and 130 nM in the data set on MS2 coat protein [2].

Regarding “AAUAAGUGAGGAUAUGGAAAUAGUAGAUAAGAUUCCCUAAACCAGAAGGCACAUGAGGAUCACCCAUGUAAAUA [JR_Exc004_Sub005]”, the “apparent KD of MS2 coat protein” value worked out at 26.4 nM in the data set on MS2 coat protein [1] and 38.7 nM in the data set on MS2 coat protein [2].

In the case of “AAUAAGUGAGGAUAUGUGAAUAGAAGAUAAGAUACCCAAAAACAGAAGGCACAUGAGGAUCACCCAUGUAAAUA [JR_Exc004_Sub009]”, the “apparent KD of MS2 coat protein” value was 24.3 nM in the data set on MS2 coat protein [1] and 33.7 nM in the data set on MS2 coat protein [2].

As for “AAUAGUGGAGGAUAUACAUGAGGAUCACCCAUGUAGAAAGGAAGUGUAUAUAUGGCGUGUAGAAGGCCAAAUAA [Mai Tai 3 ala Nando]”, the “apparent KD of MS2 coat protein” value in the data set with MS2 coat protein [1] stood at 30.3 nM; in the data set with MS2 coat protein [2], 32.3 nM.

In the case of “AAUGGUGCAGGAUAUACAUGAGGAUCACCCAUGUACAUCAGACAUAUGGUCGAAGCAUGUAGAAGGGCACCAAA [Ex 3May 56]”, the “apparent KD of MS2 coat protein” value was found to be 183 nM with MS2 coat protein [1] and 145 nM in the data set on MS2 coat protein [2].

“AAUUAGGUAGGAUAUACAUGAGGAUCACCCAUGUAGGAAAAAAGCUACGAAAAAGAAUGUAGAAGGACCUAAAA [Ex 3 Sunny]”: the “apparent KD of MS2 coat protein” value in the data set with MS2 coat protein [1] was found to be 18.7 nM; in the data set with MS2 coat protein [2], 13.2 nM.

Turning to “ACAUCUAGAGGAUAUACAUGGAAAAAAAAAAAAAAAAAACUACAUGAGGAUCACCCAUGUAGAAGGCUAGAUGA [Ex2 Design 192: Random 12]”, the “apparent KD of MS2 coat protein” value in the data set with MS2 coat protein [1] turned out to be 35.7 nM; in the data set on MS2 coat protein [2] it was 40.4 nM.

For the sequence “ACCAGACAUGAGGAUCACCCAUGUCAGGAUAUGCAUCUUAGGAAAAAAAAACUAAGAUGCAGAAGGGACAAGGG [Design 5: Super Stable - A-U mutation]”, the “apparent KD of MS2 coat protein” value stood at 20.1 nM in the data set with MS2 coat protein [1] and 16 nM in the data set with MS2 coat protein [2].

With “ACUUGACAUGAGGAUCACCCAUGUCAGGAUAUAGUAGGACAAAUAAAUAAAAGUUCUACUAGAAGGGAUAUGGG [Design 20: G-U+ 4]”, the “apparent KD of MS2 coat protein” value in the data set on MS2 coat protein [1] turned out to be 36.5 nM; with MS2 coat protein [2], 20.7 nM.
